Values quoted from earlier work in publication PMC3359286.

Target: hemoglobin (Homo sapiens) (UniProt P69905)
Sequence (P69905 2-142, chain 1 of 2): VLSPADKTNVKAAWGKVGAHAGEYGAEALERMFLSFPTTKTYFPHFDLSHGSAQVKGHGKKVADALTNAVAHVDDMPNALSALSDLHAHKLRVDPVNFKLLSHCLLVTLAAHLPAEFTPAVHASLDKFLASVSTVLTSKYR
Sequence (P68871 2-147, chain 2 of 2, further chain): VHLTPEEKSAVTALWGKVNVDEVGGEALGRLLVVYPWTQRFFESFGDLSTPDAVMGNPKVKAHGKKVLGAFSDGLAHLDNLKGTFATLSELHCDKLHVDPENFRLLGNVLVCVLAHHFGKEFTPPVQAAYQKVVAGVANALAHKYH

## IsdB (from UniProt A7X146)
  Kd: 55 nM
